# Measured values published in patent publication US20170088602A1 (Bristol-Myers Squibb, published 2017).
# Residue numbers refer to the chain shown, from its start. Numbers in names are those of the source. Where two headings read alike, the source gives them in different places.
# T1: human myostatin (mature, recombinant; R&D Systems) (human, UniProt O14793 267-375)
# T1 sequence: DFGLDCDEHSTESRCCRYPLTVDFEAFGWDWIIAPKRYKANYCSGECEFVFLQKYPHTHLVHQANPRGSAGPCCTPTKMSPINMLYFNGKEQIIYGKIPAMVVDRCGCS
# T2: human Activin A (R&D Systems) (human, UniProt P08476 311-426)
# T2 sequence (looked up): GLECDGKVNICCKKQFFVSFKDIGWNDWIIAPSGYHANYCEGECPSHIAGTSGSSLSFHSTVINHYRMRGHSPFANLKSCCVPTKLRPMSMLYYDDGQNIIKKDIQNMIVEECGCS
# B1: ATI-1339 [40K 4-branch PEG] (designed binder)
# chain: MGVSDVPRDLEVVAATPTSLLISWTLPHAGRAHYYRITYGETGGNSPVQEFTVPGRGVTATISGLKPGVDYTITVYAVTVTTTKVIHYKPISINYRTEGSGCHHHHHH
# modifications: 40K 4-branch PEG on the Cys of the EGSGC tail
# notes: cysteine mutant of 2987_H07
# B2: ATI-1338 [40K 2-branch PEG] (designed binder)
# chain: B1 chain
# modifications: 40K 2-branch PEG on the Cys of the EGSGC tail
# notes: cysteine mutant of 2987_H07
# B3: human BMP-11 (GDF-11; R&D Systems) (ligand, UniProt O95390 299-407, looked up)
# chain: NLGLDCDEHSSESRCCRYPLTVDFEAFGWDWIIAPKRYKANYCSGQCEYMFMQKYPHTHLVQQANPRGSAGPCCTPTKMSPINMLYFNDKQQIIYGKIPGMVVDRCGCS
# B4: 3116_A06 R56A (designed binder)
# chain: MGVSDVPRDLEVVAATPTSLLISWSLPHQGKANYYRITYGETGGNSPVQEFTVPGAGVTATISGLKPGVDYTITVYAVTVTDTGYLKYKPISINYRTEIDKPSQHHHHHH
# B5: ALK5-Fc (R&D Systems) (Fc fusion, UniProt P36897 34-125, looked up, not shown: a dimerising Fc or GST)
# chain: LQCFCHLCTKDNFTCVTDGLCFVSVTETTDKVIHNSMCIAEIDLIPRDRPFVCAPSSKTGSVTTTYCCNQDHCNKIELPTTVKSSPGLGPVE
# B6: ALK4-Fc (R&D Systems) (Fc fusion, UniProt P36896 24-126, looked up, not shown: a dimerising Fc or GST)
# chain: SGPRGVQALLCACTSCLQANYTCETDGACMVSIFNLDGMEHHVRTCIPKVELVPAGKPFYCLSSEDLRNTHCCYTDYCNRIDLRVPSGHLKEPEHPSMWGPVE
# notes: also called activin receptor-like kinase 4 Fc
# B7: ATI-1276 [40K 2-branch PEG] (designed binder)
# chain: MGVSDVPRDLEVVAATPTSLLISWYLPYPAHMNYYRITYGETGGNSPVQEFTVPGRGLTATISGLKPGVDYTITVYAVTLTKSQILHHRPISINYRTEGSGCHHHHHH
# modifications: 40K 2-branch PEG on the Cys of the EGSGC tail
# notes: cysteine mutant of 2524_D09
# B8: ATI-1278 [40K 2-branch PEG] (designed binder)
# chain: B7 chain with Y25S, P29A, A30G, M32L, L58V, I85L, L86I, H88Y, R89M
# modifications: 40K 2-branch PEG on the Cys of the EGSGC tail
# notes: cysteine mutant of 2525_D05
# B9: ActRIIB-monomer (produced in house) (receptor, UniProt Q13705 19-134, looked up)
# chain: SGRGEAETRECIYYNANWELERTNQSGLERCEGEQDKRLHCYASWRNSSGTIELVKKGCWLDDFNCYDRQECVATEENPQVYFCCCEGNFCNERFTHLPEAGGPEVTYEPPPTAPT
# Tests used:
# [1] = target: T1, human myostatin (mature, recombinant; …); experiment: cell-based or functional assay
# [2] = target: T2, human Activin A (R&D Systems); experiment: cell-based or functional assay
# [3] = target: B3; experiment: cell-based or functional assay
# [4] = target: T1, human myostatin (mature, recombinant; …); experiment: SPR format B, 37C
# Procedure: (§1) A concentration range of anti-myostatin Adnectins was applied in HBSP running buffer. Regeneration of the chip surface between cycles was accomplished with 60 seconds of 10-50 mM NaOH. Kinetic traces of reference-subtracted sensorgrams were fit to a 1:1 binding model using Biaevaluation software. For Fc-formatted Adnectins, interaction kinetics are driven by avidity of bivalent Fc and dimeric myostatin even at low immobilization density. The data shown in Table 12 indicate that some of the Adnectins run in this SPR format bind myostatin and BMP-11 and also activin with similar affinities.
# [5] = target: T2, human Activin A (R&D Systems); experiment: SPR format B, 37C
# Procedure: as §1
# [6] = target: B3; experiment: SPR format B, 37C
# Procedure: as §1
# [7] = target: T1, human myostatin (mature, recombinant; …); experiment: competitive HTRF (1889E01/myostatin/ActRIIb-Fc sandwich)
# Excerpt: An HTRF assay was used to measure the binding affinities of anti-myostatin Adnectins to myostatin. […] The Eu-W 1024 labeled Streptavidin is used to bind biotinylated 1889E01. […] In the presence of a competitive Adnectin, the HTRF signal decreases.
# [8] = target: T1, human myostatin (mature, recombinant; …); experiment: KinExA, solution phase, global analysis
# Procedure: The affinities of PRD-1177 and ATI-1338 were also measured using the same assay format. Triplicate titrations of PRD-1177 were performed with myostatin at a monomer concentration of 1 nM (n=2) and 0.8 nM (n=1). Triplicate titrations of ATI-1338 were performed with myostatin at a monomer concentration of 5 nM (n=1), 1.6 nM (n=1), and 1.4 nM (n=1).
# ActRIIb-Fc (R&D Systems) = target: T3, ActRIIb-Fc (R&D Systems) (human, UniProt Q13705 19-134, Alexa Fluor 647 label in the HTRF assay); experiment: SPR format A set-up
# T3 construct: also called rhActRIIb-Fc; Human Activin RIIB Fc Chimera
# Excerpt: Anti-human Fc antibody (Biacore/GE) was immobilized on a Biacore CM5 chip via NHS/EDC coupling according to the manufacturer's instructions. […] A concentration range of anti-myostatin Adnectin was applied across all flow cells in HBSP running buffer. Regeneration of the chip surface between cycles was accomplished with two 30 second pulses of 3M MgCl₂. Kinetic traces of reference-subtracted sensorgrams were fit to a 1:1 binding model using Biaevaluation software.
# [9] = target: T1, human myostatin (mature, recombinant; …); experiment: HTRF competition binding assay, alanine mutant
# [10] = target: T1, human myostatin (mature, recombinant; …); experiment: cell-based or functional assay; remark: listed apart in the source
# [11] = target: T1, human myostatin (mature, recombinant; …); experiment: competitive HTRF, alanine scan
# [12] = target: B3; experiment: SPR Format A; 100 nM BMP11 with 200 nM ATI-1523 as competitor
# Procedure: (§2) Competition SPR: Competitive binding assays to evaluate the ability of anti-myostatin Adnectins to compete with Type I and Type II receptors for binding to myostatin or BMP11, as a surrogate for myostatin, were also conducted using SPR on a Biacore T100 instrument, in two different experimental formats. In “SPR Format A”, sensor chip surfaces were prepared by immobilizing 100 ug/ml protein A (Pierce) in 10 mM acetate pH 4.5 to 4500 RU on a CM5 sensor chip (Biacore/GE Healthcare) using standard ethyl(dimethylaminopropyl) carbodiimide (EDC)/N-hydroxysuccinimide (NHS) chemistry, with ethanolamine blocking. […] The running buffer for immobilization and competition experiments was 10 mM HEPES, 150 mM NaCl, 3 mM EDTA, and 0.05% v/v Surfactant P20, pH 7.4, and surfaces were regenerated between cycles using two injections of 10 mM glycine pH 1.5 for 30 s at 30 μl/min.
# [13] = target: B3; experiment: SPR Format B; immobilized BMP11, no pre-bound PRD-1474
# Procedure: (§3) Adnectin competition using “SPR format B”: The mechanism of action for anti-myostatin Adnectins was further evaluated in “SPR Format B”, where myostatin or BMP11 (10 μg/ml in 10 mM acetate pH 4.5) were directly immobilized on a CM5 sensor chip surface using EDC/NHS coupling chemistry to a density of 985 RU (myostatin) or 530 RU (BMP11). […] The running buffer for immobilization and competition experiments was 10 mM HEPES, 150 mM NaCl, 3 mM EDTA, and 0.05% v/v Surfactant P20, pH 7.4, and surfaces were regenerated between cycles using 4 injections of 50 mM NaOH for 15 s at 30 μl/min.
# [14] = target: B3; experiment: SPR Format A; 100 nM BMP11 alone
# Procedure: as §2
# [15] = target: B3; experiment: SPR Format B; immobilized BMP11 with pre-bound PRD-1474 as competitor
# Procedure: as §3
# [16] = target: T2, human Activin A (R&D Systems); experiment: cell-based or functional assay; remark: listed apart in the source
# [17] = target: T1, human myostatin (mature, recombinant; …); experiment: SPR format A, 25C
# Method in brief: (§4)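 Fc-fusion captured on an anti-human Fc antibody CM5 surface; anti-myostatin Adnectin injected over a concentration range in HBSP buffer. Regeneration used two 30 s pulses of 3M MgCl₂; reference-subtracted sensorgrams fitted to a 1:1 binding model.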
# [18] = target: B3; experiment: SPR format A, 25C
# Method in brief: as §4
binder,measurement,setting,value
B1,ARE-luciferase IC50,[1],0.28 nM
same,ARE-luciferase IC50,[2],> 1000 nM
same,ARE-luciferase IC50,[3],6 nM
same,Kd,[4],3.6 nM
same,Kd,[5],6.5 nM
same,Kd,[6],6.9 nM
same,IC50,[7],0.28 nM
B2,ARE-luciferase IC50,[1],0.28 nM
same,ARE-luciferase IC50,[2],> 1000 nM
same,ARE-luciferase IC50,[3],5.8 nM
same,Kd,[8],0.85 nM
same,Kd,[4],1.9 nM
same,Kd,[5],4.6 nM
same,Kd,[6],3.8 nM
same,IC50,[7],0.24 nM
B3,binding result,ActRIIb-Fc (R&D Systems),binds
B4,IC50,[9],> 100 nM
same,Myostatin ARE-luc IC50,[10],> 100 nM
same,IC50,[11],55 nM
B5,SPR binding response (normalized),[12],31%
same,SPR binding response (normalized),[13],100%
same,SPR binding response (normalized),[14],100%
same,SPR binding response (normalized),[15],65%
B6,SPR binding response (normalized),[12],2%
same,SPR binding response (normalized),[13],100%
same,SPR binding response (normalized),[14],100%
same,SPR binding response (normalized),[15],30%
B7,ARE-luciferase IC50,[1],0.08 nM
same,ARE-luciferase IC50,[3],0.15 nM
same,ARE-luciferase IC50,[16],110 nM
same,Kd,[17],4.18 nM
same,Kd,[18],8.8 nM
same,IC50,[7],0.28 nM
B8,ARE-luciferase IC50,[1],0.27 nM
same,ARE-luciferase IC50,[3],1.1 nM
same,ARE-luciferase IC50,[16],> 2000 nM
same,Kd,[17],6.04 nM
same,Kd,[18],3.3 nM
same,IC50,[7],0.54 nM
B9,SPR binding response (normalized),[13],100%
same,SPR binding response (normalized),[15],92%
